The DeepSol protein solubility set

test: soluble on expression in E. coli; label from the status in PepcDB or PDB records

Row | Sequence | soluble on expression in E. coli
1 | MSDPADVFDLVGLTEYEATALEQLLSLGRTTAPNLAEASGIPKARVYGVLESLSDRGFIKLIPGRPKEYQPKSPSDILDRAVENRKQSYESFAADMDSYRDAFLAEYEPRFERANEDISPTAELFHVVDVGEPSERETRRLYDDADETLRVITNSFAYLDNVERALAETLDRGVEVNVLFLHPDALPPEKAAVQADIVDRLTAEYPAIDLRFSTEKLPWRGTLVDPSMDYDSGEAILLVEEPDVPNHMRQAAITDNGSFVAGMKRYFDLVWEYESVQRSN | not soluble
2 | MNQLLKTLRDFGLSSYEASAYVALVSSGETTAREVSRKAGIPRTKVYEVLNRLVEKGFAEVQPGSPAIFRAIEPAKIAARMQRDFNERLGKMLKAFEELKMDEKSESKLVWISRGRWAVENRLREFLRENDKVMVFCITENFASVLSEVRGEHRVLLYQKFRVPENIREFRVLDLGRIKKAKDGFVARFAEIIEGTEAGKPEILIISEGSSILALSHGEEYLALSIHLPLIVALQKRMFDTLYESYC | not soluble
3 | MVKLTSIAAGVAAIAATASATTTLAQSDERVNLVELGVYVSD | not soluble
4 | MSLNDSFNPNENNPAEPSMELVVNGSGINVRSDAGIEHRVVRKASNGDRYKVLAVKNGWYKVGNGEWIFYDPSWIKINYNVPKEEVQKPKEEVQKPKDDITGGWFEGHIRKLNSLGIMQGEGNGVFAPYRNVTRAEFAKLISNALKLPEGNKSFVDINEAHPSLHDGIKRCASAGIINGRGEGIFDPNSPITREEVSIMIDKALRYKGITGELVALPFTDKHLITYKESVQRLYSLKVVNGIGNNEFDPRGTATRGQAAAFIVKMLDSMQKEGHHHHHH | soluble
5 | GMTNHNNSGKKKVAILIEQAVEDTEFIIPCNGLKQAGFEVVVLGSRMNEKYKGKRGRLSTQADGTTTEAIASEFDAVVIPGGMAPDKMRRNPNTVRFVQEAMEQGKLVAAVCHGPQVLIEGDLLRGKQATGFIAISKDMMNAGADYLDEALVVDGNLITSREPGDLAIFTTAILSRLGYGGKDAALPDEKDRNAEWWKLADAWGGSTKGDIVRGLNTALGGERYSLEALEKYTEKESDVEAKALFQEMITNKQRHIEYLETYLTRLGEKPSLSANIANQYAKVKTALTGSDDIYQIRSALGDIQTGIGDIGNLCAMYTDPIATAIFKEIYKDLVKYEQRLVSLYRTRTNATVQPPKPTTGAAVSM | soluble
6 | MRVLIVKTSSMGDVLHTLPALTDAQQAIPGIKFDWVVEEGFAQIPSWHAAVERVIPVAIRRWRKAWFSAPIKAERKAFREALQAKNYDAVIDAQGLVKSAALVTRLAHGVKHGMDWQTAREPLASLFYNRKHHIAKQQHAVERTRELFAKSLGYSKPQTQGDYAIAQHFLTNLPTDAGEYAVFLHATTRDDKHWPEEHWRELIGLLADSGIRIKLPWGAPHEEERAKRLAEGFAYVEVLPKMSLEGVARVLAGAKFVVSVDTGLSHLTAALDRPNITVYGPTDPGLIGGYGKNQMVCRAPGNELSQLTANAVKQFIEENAEKAAMI | soluble
7 | MSLTVFKSPITGRTYHLVFNDEFDDGVIDTLKWDTRSRRSPFTRRGMYQEKPYYVLCHEDWTKELHGELRLEVSKYPTQNNVVMTGGILSLGRFMARYGYYETKASFRDCIGEGYWPAFWIHFDEADKYGKGTEIDVFEYIPKDKQIFQTLHWYKKQAMEEQQSEVQHAALDYDKSGQFKEHRSSTKYFVLDEAQSKEHTFAVEWTPEELIFYTDGKVTRRVNRKDDPKQVPSAYQMVYFSCSAGEWGGNVMENQVPAYVYFDYCRCYQESDQDAIYTVKGNGMKVPASRRVGKEGHHHHHH | not soluble
8 | MGSDKIHHHHHHMHLTKTWLAQLPLTDIQQVQPVSGGDINAAFQIITRHHQYFLKVQPHNDVTFFDHEVAGLRLLGAVTKTPRVIASGTIATDGYLLLDWLATGTGSQSALGAAVAKVHHQHHAQFGLDHDFTAGKLPKINHWQTDWATFYTQQRLDVLVNLAKEHHLWSETREMHYHRLRQQLLQDSHMHTVKPSLLHGDLWSGNYLFDTTGTPVLIDPDVFYGDREMDLAMTTIFGGFDTDFYQAYQAAYPVAPGMQDRLPSYQLYYLLAHLNLFGETYGPAVDRILMQY | not soluble
9 | MRALGQNPTNAEVLKVLGNPKSDEMNVKVLDFEHFLPMLQTVAKNKDQGTYEDYVEGLRVFDKEGNGTVMGAEIRHVLVTLGEKMTEEEVEMLVAGHEDSNGCINYEELVRMVLNG | soluble
10 | MGSDKIHHHHHHFDEETAFQSPTLVYVNTVASLYNNMFKIMGNDRHVYDLNTFSSDEAMLPCRIGDWEDGGLWQNIFLHRWGTMNDLTKNSWDFLYEQIGKCNQSVDKLQAFAEEQPDVEYFKVYLEEVRAVRAFFYYELLDLFARVPLVTSSTTPMSEVKQSERSVVFNFVRSELEEALPYLSDNRSNQKGEYYGRITKPVAYMILAKLALNAEVYADDNWTDGNRPAGKNIKFTVDGKEMNAWEATIAYVDKLEALGYKLQGNFSENFAVANETSVENIFTVPMDPVAYPDAKDYNLVRTRHYDHATAYGQSGWNGSCATVKAMNVFKFGTADEDPRCKLTYFTGEVTGPDGKTIYTEWDGQKVPLKYEPNAPKVYMDASDGLLVKTAGARMAKYEFDQNAQDGGNLHGNDCVIFRFADALLMKAEAKIRLGQNGDDEVNQVRNRVGAKPLQNVTLDTLLDERMLELAWEGVRRQDLIRFGKFTEATVDRYVGVKHFASSLDYQEDKTGYTTVFSIYADILSLNPNLTQNPGY | not soluble
11 | MAASTFFIPSVNVIGADSLTDAMNMMADYGFTRTLIVTDNMLTKLGMAGDVQKALEERNIFSVIYDGTQPNPTTENVAAGLKLLKENNCDSVISLGGGSPHDCAKGIALVAANGGDIRDYEGVDRSAKPQLPMIAINTTAGTASEMTRFCIITDEARHIKMAIVDKHVTPLLSVNDSSLMIGMPKSLTAATGMDALTHAIEAYVSIAATPITDACALKAVTMIAENLPLAVEDGSNAKAREAMAYAQFLAGMAFNNASLGYVHAMAHQLGGFYNLPHGVCNAVLLPHVQVFNSKVAAARLRDCAAAMGVNVTGKNDAEGAEACINAIRELAKKVDIPAGLRDLNVKEEDFAVLATNALKDACGFTNPIQATHEEIVAIYAAR | not soluble
12 | MGSDKIHHHHHHMVCNLAIDAYYGCMADFSHILMTRPDFGDDDREWLHQLVADWQVIADLSFADLLLILQNGEGKYIIAEQCRPSTVMSLRAEDVVGNVVPESLCAELDAAMDSESVFRSSKLRTVGKAKVCNVYAPVRHNGKTLGLVVRETNMATRESNGRYESESISAGKQLYEMIPRGQFPYRNPVMNQRHNARVADGFIVLTVDGIVRYASPNAISCFRRLGSVSTMQGEYLSEIGTKLLHENDPVLETLPLVLSGKAAVDSELDANKAAVSMRSLPLMDANGRVGGIVLCRDVSELRRREKELQTKDATISEIHHRVKNNLQAVSALLRLQARKTKSEEVKKELKEAQRRVQTIAMVHEGLSQTADEIVDYDKVISNLLKMAVDLATMRDQHIDVDFVGKFGMMPAQDATPLSLVLTELITNSVEHGFEGRKEGHITISVGRGGNNLNVVVEDDGTGLADEEHDGMARSSGSGLGTQIINTFVTNDFGGTVHWEPRRGGGTRVVLDMKLCAAQDN | not soluble
13 | MGMLVEGVWKDVWYDTKETKGHFKRSASQFRNWVTVDGAVGPSGEGGFEAEKDRYHLYVSFACPWAHRTLIFRKLKKLEDLISVSVVDPLMLENGWEFKPEGERTPGATQDHLFGSSTLWQVYTKADPTYSGRVTVPVLWDKKRGTIVSNESAEIIRMFNVAFNDLTGSDADYYPKALRAEIDALNDVIYDTVNNGVYKAGFATTQDAYQQNAVKVFETLDMLEDRLKDRRFLFGSEQTEADWRLFTTLVRFDPVYVGHFKCNIRRIHDYPHLTGYLRDLYQTPGVPDTVDMRHIKEHYYRSHRTINPTGIVPIGPELDLTMAHGREALS | soluble
14 | MLFKARKWILSGASAQKSKSMAHTMLVENGFILPTAKGFYSLLPLGQRVIDKLCRILDVEFQNSGALKIAMPIVGTQQLWEKTGRWEAMGPEMIRFHDRQQNHMCLQPTAEEMCTELIATLSPLKKSQFPLIVYQIGEKFRDEMNPRFGLMRGRQFLMKDMYSFSTDAETSQQTYAQIRQIYDRIFGEILQLDEDVIKVEADSGVHGGHISHEYHLKSSLEEDFVNFCENCKNHNKFEGPGPAKCEKCAENSSKTVQKIPSVEIAHTFHLGTKYSEALGAKFQGKPLDMCCFGIGVTRLLPAAIDLLSVSDKALRLPRAIAPFDAVIIVKKSLMSNVIVEMASSSASRYLKGGILLDDRVEMSAGKRIHDANRLGIPFILVIANETERSLATQKPVIEVFTTHAKSAEPMSQGSMSLDRFVTFVQSTLYGGGGAHDSGHLAHNQVLDQLGSHQH | not soluble
15 | MAQTPAFNKPKVELHVHLDGAIKPETILYFGKKRGIALPADTVEELRNIIGMDKPLSLPGFLAKFDYYMPVIAGCREAIKRIAYEFVEMKAKEGVVYVEVRYSPHLLANSKVDPMPWNQTEGDVTPDDVVDLVNQGLQEGEQAFGIKVRSILCCMRHQPSWSLEVLELCKKYNQKTVVAMDLAGDETIEGSSLFPGHVEAYEGAVKNGIHRTVHAGEVGSPEVVREAVDILKTERVGHGYHTIEDEALYNRLLKENMHFEVCPWSSYLTGAWDPKTTHAVVRFKNDKANYSLNTDDPLIFKSTLDTDYQMTKKDMGFTEEEFKRLNINAAKSSFLPEEEKKELLERLYREYQ | soluble
16 | KTSDANETEDHLESLICKVGEKSACSLESNLEGLAGVLEADLPNYKSKILRLLCTVARLLPEKLTIYTTLVGLLNARNYNFGGEFVEAMIRQLKESLKANNYNEAVYLVRFLSDLVNCHVIAAPSMVAMFENFVSVTQEEDVPQVRRDWYVYAFLSSLPWVGKELYEKKDAEMDRIFANTESYLKRRQKTHVPMLQVWTADKPHPQEEYLDCLWAQIQKLKKDRWQERHILRPYLAFDSILCEALQHNLPPFTPPPHTEDSVYPMPRVIFRMFDYTDDPEGPVMPGSHSVERFVIEENLHCIIKSHWKERKTCAAQLVSYPGKNKIPLNYHIVEVIFAELFQLPAPPHIDVMYTTLLIELCKLQPGSLPQVLAQATEMLYMRLDTMNTTCVDRFINWFSHHLSNFQFRWSWEDWSDCLSQDPESPKPKFVREVLEKCMRLSYHQRILDIVPPTFSALCPSNPTCIYKYGDESSNSLPGHSVALCLAVAFKSKATNDEIFSILKDVPNPNQDDDDDEGFSFNPLKIEVFVQTLLHLAAKSFSHSFSALAKFHEVFKTLAESDEGKLHVLRVMFEVWRNHPQMIAVLVDKMIRTQIVDCAAVANWIFSSELSRDFTRLFVWEILHSTIRKMNKHVGAQSEQKNLFLVIFQRFIMILTEHLVRCETDGTSVLTPWYKNCIERLQQIFLQHHQIIQQYMVTLENLLFTAELDPHILAVFQQFCALQA | soluble
17 | MGSDKIHHHHHHMTEWVPVIYGIGLDAAGRCQHYHLETDIAALWCRRCQHYYACYRCHDTLCQHTFVASAPTDLAVMCGACRYRMTVDRYHEGQCPHCHRPFNPRCRLHDQVYFEK | not soluble
18 | MSSNDSSLMAGIIYYSQEKYFHHVQQAAAVGLEKFSNDPVLKFFKAYGVLKEEHIQDAISDLESIRHHPDVSLCSTMALIYAHKRCEIIDQEAIQELEYSLKEIRKTLSGTALYYAGLFLWLIGRHDKAKEYIDRMLKISRGFREAYVLRGWVDLTSDKPHTAKKAIEYLEQGIQDTKDVLGLMGKAMYFMMQQNYSEALEVVNQITVTSGSFLPALVLKMQLFLARQDWEQTVEMGHRILEKDESNIDACQILTVHELAREGNMTTVSSLKTQKVILETESRRNPS | not soluble
